Results reported in publication PMC4335073.

Target: Ross River virus (RRV), WT T48 strain, UV-inactivated virus coated on plates (Ross River virus, strain T48)

Substance: recombinant human PTX3 N-terminal fragment (domain or fragment)
- RRV entry into HEK 293T cells at 0 and 6 hpi (flow cytometry with anti-alphavirus antibody), RRV pre-incubated with the PTX3 fragment, compared with full-length rhPTX3 (% less efficient than full-length rhPTX3): 30
